Earlier results on two substances are cited in paper PMC10094977.

pKd: −log10 of the molar value.

In data set [1] the target is Cav1.2 IQ domain IQ (UniProt Q13936). Description: isothermal titration calorimetry.
For data set [2], the target named is Cav1.2 alpha1C IQ domain 1611-1644 (Homo sapiens) (UniProt Q13936). Description: isothermal titration calorimetry.
Chain of Cav1.2 alpha1C IQ domain 1611-1644 (Homo sapiens) (Q13936 1611-1644): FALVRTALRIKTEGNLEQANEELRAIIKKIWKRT

Chain of Cav1.2 IQ domain IQ (Q13936 1665-1685): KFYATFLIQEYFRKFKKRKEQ

For orientation: pKd means −log10 of the Kd, conventionally taken in molar units. “Ca2+/calmodulin C-lobe C-lobe (from UniProt P0DP23)”: in data set [1], the pKd was 8.70.

Calmodulin C-lobe (from UniProt P0DP23): in data set [2], the pKd was 8.70.
